Test results from US20130209489A1 (Amgen, published 2013).

Experiments:
[1] = target: T1, mature human myostatin (human, UniProt O14793 267-375); test: ratio of the affinities for GDF11 and myostatin
T1 construct: they are put on this molecule; also called GDF-8; recombinant mature myostatin

[2] = target: T2, BMP10 (UniProt O95393 317-424); test: Biacore SPR, ligand flowed over immobilized antibody
T2 sequence (looked up): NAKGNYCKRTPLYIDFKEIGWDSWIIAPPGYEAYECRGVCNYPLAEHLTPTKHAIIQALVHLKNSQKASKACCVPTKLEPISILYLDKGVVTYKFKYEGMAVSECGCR
Method: Binding specificity analysis was carried out for 12A5-5 using Biacore™, a label-free surface plasmon resonance (SPR) based technology for studying biomolecular interactions in real time (GE Healthcare, Chalfont St. Giles, UK). 12A5-5, and ActRIIB/Fc were made in house, TGFbetaR11/Fc and BMPR-1A/Fc were from R & D Systems (Minneapolis, Minn.). […] Ten nanomolar of each of the ligands was flowed over immobilized high density antibody and receptor surfaces. Binding of Myostatin, GDF11, GDF3, Activin A, Activin AB, Activin AC, TGF-beta1, BMP4, BMP9, and BMP10 to their corresponding receptors was tested and used as control to normalize the signals of the ligands binding to 12A5-5 and the other receptors.

[3] = target: promyostatin (UniProt O14793 24-375, limits assumed); test: KinExA solution equilibrium assay, promyostatin-coated beads
From the text: Solution-based equilibrium-binding assays using KinExA® technology (Sapidyne Instruments, Inc.) are employed to determine the dissociation equilibrium (Kd) of myostatin binding to antibody molecules. This solution-based assay is considered to be more sensitive than the BIAcore® assay in some instances. Reacti-Gel 6×(a highly reactive, cross-linked 6% agarose bead for immobilization of amine-containing ligands; Thermo Scientific Pierce, Rockford, Ill.) is pre-coated with about 50 microG/ml myostatin overnight, and then blocked with bovine serum albumin (BSA; 1 mg/ml). Antibody samples (10 pM, and 30 pM) were incubated with various concentrations (0.5 pM to 5 nM) of myostatin in sample buffer containing 0.1 mg.ml BSA at room temperature for eight hours before being run through the myostatin-coated beads. The amount of the bead-bound antibody is quantified by fluorescent (Cy5) labeled goat anti-human-Fc antibody at 1 mg/ml in SuperBlock® (an optimized protein-based solution for blocking excess binding sites; Thermo Scientific Pierce, Rockford, Ill.). The binding signal is proportional to the concentration of free antibody at equilibrium with a given myostatin concentration. […]
A KinExA™ assay similar to the one previously described was run, using promyostatin instead of mature myostatin. […] The amount of the bead-bound antibody is quantified substantially as previously described.

[4] = target: T1, mature human myostatin; test: cell-based or functional assay
[5] = target: T3, Peptide P (chymotryptic peptide, antibody-protected Cys knot, dimer) (human); test: BIAcore competition: 12A5-5 pre-incubated with the HPLC peptide fraction in solution, then passed over immobilized human myostatin; low response means the peptide binds the antibody
T3 construct: Formed when myostatin pre-incubated with 12A5-5 was digested with chymotrypsin
T3 chain 1: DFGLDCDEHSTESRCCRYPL
T3 chain 2: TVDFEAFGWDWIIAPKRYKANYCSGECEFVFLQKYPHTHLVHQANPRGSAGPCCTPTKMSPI
T3 chain 3: GKIPAMVVDRCGCS
Method: (§1) The strategy for characterizing the epitopes bound by anti-myostatin neutralizing monoclonal antibodies was to use various CNBr—, LysC— and chymotrypsin-generated human myostatin peptides and determine which peptides could be bound by the antibody. In one aspect, this was tested in a BIAcore® competition binding assay where the binding of 12A5-5 to human myostatin immobilized on a BIAcore® chip was determined in the presence or absence of each of the various isolated HPLC peptide fractions. In the absence of any competing peptides, 12A5-5 was able to bind the human myostatin on the chip and produce an RU (resonance unit) response. […] This general procedure was repeated individually for each peptide. […] These binding patterns, coupled with the known identity of the various myostatin peptides were used to determine which regions of myostatin were important (or necessary) for the binding of antibody 12A5-5.

[6] = target: T4, Peptide G (LysC peptide, Cys knot, dimer) (human); test: as above
T4 construct: Four LysC peptides held together by disulfide bonds (cystine knot), dimeric through Cys73 (19.5 kD)
T4 chain 1: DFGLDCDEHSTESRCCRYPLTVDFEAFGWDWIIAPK
T4 chain 2: ANYCSGECEFVFLQK
T4 chain 3: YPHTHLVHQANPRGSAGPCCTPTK
T4 chain 4: IPAMVVDRCGCS
Method: as §1

[7] = target: T1, mature human myostatin; test: KinExA solution equilibrium assay, myostatin-coated beads
From the text: Solution-based equilibrium-binding assays using KinExA® technology (Sapidyne Instruments, Inc.) are employed to determine the dissociation equilibrium (Kd) of myostatin binding to antibody molecules. This solution-based assay is considered to be more sensitive than the BIAcore® assay in some instances. Reacti-Gel 6×(a highly reactive, cross-linked 6% agarose bead for immobilization of amine-containing ligands; Thermo Scientific Pierce, Rockford, Ill.) is pre-coated with about 50 microG/ml myostatin overnight, and then blocked with bovine serum albumin (BSA; 1 mg/ml). Antibody samples (10 pM, and 30 pM) were incubated with various concentrations (0.5 pM to 5 nM) of myostatin in sample buffer containing 0.1 mg.ml BSA at room temperature for eight hours before being run through the myostatin-coated beads. The amount of the bead-bound antibody is quantified by fluorescent (Cy5) labeled goat anti-human-Fc antibody at 1 mg/ml in SuperBlock® (an optimized protein-based solution for blocking excess binding sites; Thermo Scientific Pierce, Rockford, Ill.). The binding signal is proportional to the concentration of free antibody at equilibrium with a given myostatin concentration. Kd is obtained from the nonlinear regression of the competition curves using a dual-curve one-site homogeneous binding model provided in the KinExA™ software (Sapidyne Instruments, Inc.).

[8] = target: T1, mature human myostatin; test: cell-based or functional assay; remark: listed apart in the source

B1: anti-myostatin neutralizing monoclonal antibody 12A5-5 (antibody, V domains shown)
VH: EVQLVESGGGLVQPGGSLRLSCAASGFTFSRYWMNWVRQAPGKGLEWVAQIRLKSDNYATHYAESVKGRFTISRDNAKNSLYLQMNSLRAEDTAVYYCTEGLDYWGQGTTVTVSS
VL: DIQMTQSPSSLSASVGDRVTITCKASQDINKYVAWYQQKPGKAPKLLIYYTSWLQPGVPSRFSGSGSGTDFTFTISSLQPEDIATYYCLQYDNLLYTFGQGTKLEIK
notes: in the KinExA assay it was detected with a goat anti-human-Fc antibody, so it carries a human Fc; also called Mab 12A5-5; MAb 12A5-5
fold selectivity for myostatin over GDF11 [1]: ~10000 fold | binding result [2]: no binding (tested: Ten nanomolar of each of the ligands) | Kd [3]: ~2 pM | IC50 (nM), C2C12/pMARE luciferase reporter cell myostatin activity assay [4]: 1.85 nM | binding result [5]: binds | binding result [6]: binds | Kd [7]: ~2 pM | Cell Assay (IC50), inhibition of myostatin activity [8]: 1200 pM
